B1: wild-type alcohol oxidase of Pichia pastoris (AOX-WT) (enzyme, P. pastoris, UniProt F2QY27 1-663, looked up)
chain: MAIPEEFDILVLGGGSSGSCIAGRLANLDHSLKVGLIEAGENNLNNPWVYLPGIYPRNMKLDSKTASFYTSNPSPHLNGRRAIVPCANVLGGGSSINFMMYTRGSASDYDDFQAEGWKTKDLLPLMKKTETYQRACNNPDIHGFEGPIKVSFGNYTYPVCQDFLRASESQGIPYVDDLEDLVTAHGAEHWLKWINRDTGRRSDSAHAFVHSTMRNHDNLYLICNTKVDKIIVEDGRAAAVRTVPSKPLNPKKPSHKIYRARKQIVLSCGTISSPLVLQRSGFGDPIKLRAAGVKPLVNLPGVGRNFQDHYCFFSPYRIKPQYESFDDFVRGDAEIQKRVFDQWYANGTGPLATNGIEAGVKIRPTPEELSQMDESFQEGYREYFEDKPDKPVMHYSIIAGFFGDHTKIPPGKYMTMFHFLEYPFSRGSIHITSPDPYAAPDFDPGFMNDERDMAPMVWAYKKSRETARRMDHFAGEVTSHHPLFPYSSEARALEMDLETSNAYGGPLNLSAGLAHGSWTQPLKKPTAKNEGHVTSNQVELHPDIEYDEEDDKAIENYIREHTETTWHCLGTCSIGPREGSKIVKWGGVLDHRSNVYGVKGLKVGDLSVCPDNVGCNTYTTALLIGEKTATLVGEDLGYSGEALDMTVPQFKLGTYEKTGLARF
B2: AOX with the COOH-terminal LARF replaced by RSC (AOX–RSC, pHWO41) (enzyme, P. pastoris)
chain: MAIPEEFDILVLGGGSSGSCIAGRLANLDHSLKVGLIEAGENNLNNPWVYLPGIYPRNMKLDSKTASFYTSNPSPHLNGRRAIVPCANVLGGGSSINFMMYTRGSASDYDDFQAEGWKTKDLLPLMKKTETYQRACNNPDIHGFEGPIKVSFGNYTYPVCQDFLRASESQGIPYVDDLEDLVTAHGAEHWLKWINRDTGRRSDSAHAFVHSTMRNHDNLYLICNTKVDKIIVEDGRAAAVRTVPSKPLNPKKPSHKIYRARKQIVLSCGTISSPLVLQRSGFGDPIKLRAAGVKPLVNLPGVGRNFQDHYCFFSPYRIKPQYESFDDFVRGDAEIQKRVFDQWYANGTGPLATNGIEAGVKIRPTPEELSQMDESFQEGYREYFEDKPDKPVMHYSIIAGFFGDHTKIPPGKYMTMFHFLEYPFSRGSIHITSPDPYAAPDFDPGFMNDERDMAPMVWAYKKSRETARRMDHFAGEVTSHHPLFPYSSEARALEMDLETSNAYGGPLNLSAGLAHGSWTQPLKKPTAKNEGHVTSNQVELHPDIEYDEEDDKAIENYIREHTETTWHCLGTCSIGPREGSKIVKWGGVLDHRSNVYGVKGLKVGDLSVCPDNVGCNTYTTALLIGEKTATLVGEDLGYSGEALDMTVPQFKLGTYEKTGRSC

Target: the molecule itself
Test: sucrose velocity gradient sedimentation

Protein	stoichiometry N
B1	8
B2	8
